{"source": "patent US20240270846A1", "about": "(published 2024)", "key": {"[1]": {"target": "T1, CD3 epsilon homodimer protein (UniProt P07766 23-126)", "T1 construct": "also called CD3 (CD3 epsilon)", "assay": "SPR, CD3e homodimer on chip;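 note: surface plasmon resonance at 25 degrees C, antibodies flowed as analyte over CD3 epsilon homodimer amine-coupled to a CM4 chip, running buffer HBS-EP+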", "T1 sequence (P07766 23-126)": "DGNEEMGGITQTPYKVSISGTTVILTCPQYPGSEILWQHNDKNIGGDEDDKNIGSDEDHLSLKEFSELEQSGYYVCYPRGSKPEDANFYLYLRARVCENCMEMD"}, "[2]": {"target": "T2, CD3 epsilon homodimer protein (UniProt P07766 23-126)", "T2 construct": "also called CD3 (CD3 epsilon)", "assay": "SPR (Biacore T200), CD3e homodimer on CM4 chip, antibody as analyte; KD ratio vs unaltered GLS3000;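 note: CD3 epsilon homodimer amine-coupled to the sensor surface, antibodies injected as analyte at 25 °C with HBS-EP+ running buffer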", "T2 sequence (P07766 23-126)": "as above"}}, "data": [{"binder": "GLS3000 H27dA one-arm antibody (H chain CE115HA000) (antibody, human IgG1, kappa, L234A L235A, N297A, name in Kabat numbering, one-arm antibody) heavy: QVQLVESGGGVVQPGRSLRLSCAASGFTFSNAWMHWVRQAPGKGLEWVAQIKAKSNNYATYYAESVKGRFTISRDDSKNSLYLQMNSLKTEDTAVYYCRYVHYGAYYGVDAWGQGTTVTVSSASTKGPSVFPLAPSSKSTSGGTAALGCLVKDYFPEPVTVSWNSGALTSGVHTFPAVLQSSGLYSLSSVVTVPSSSLGTQTYICNVNHKPSNTKVDKKVEPKSCDKTHTCPPCPAPEAAGGPSVFLFPPKPKDTLMISRTPEVTCVVVDVSHEDPEVKFNWYVDGVEVHNAKTKPREEQYASTYRVVSVLTVLHQDWLNGKEYKCKVSNKALPAPIEKTISKAKGQPREPQVYTLPPSRCELTKNQVSLSCAVKGFYPSDIAVEWESNGQPENNYKTTPPVLDSDGSFFLVSKLTVDKSRWQQGNVFSCSVMHEALHNHYTQKSLSLSPDYKDDDDK EPKSSDKTHTCPPCPAPELLGGPSVFLFPPKPKDTLMISRTPEVTCVVVDVSHEDPEVKFNWYVDGVEVHNAKTKPREEQYNSTYRVVSVLTVLHQDWLNGKEYKCKVSNKALPAPIEKTISKAKGQPREPQVCTLPPSRDELTKNQVSLWCLVKGFYPSDIAVEWESNGQPENNYKTTPPVLDSDGSFFLYSKLTVDKSRWQQGNVFSCSVMHEALHNRYTQKSLSLSP light: DIVMTQSPLSLPVTPGEPASISCRSSQSLVASNRNTYLHWYQQKPGQAPRLLIYKVSNRFSGVPDRFSGSGSGTDFTLKISRVEAEDVGVYYCGQGTQVPYTFGQGTKLEIKRTVAAPSVFIFPPSDEQLKSGTASVVCLLNNFYPREAKVQWKVDNALQSGNSQESVTEQDSKDSTYSLSSTLTLSKADYEKHKVYACEVTHQGLSSPVTKSFNRGEC", "values": [{"measurement": "ratio of amounts bound (altered form / unaltered GLS3000 antibody)", "setting": "[1]", "value": 0.48}]}, {"binder": "GLS3000 F55D one-arm antibody (H chain CE115HA000) (antibody, human IgG1, kappa, L234A L235A, N297A, name in Kabat numbering, one-arm antibody) heavy: QVQLVESGGGVVQPGRSLRLSCAASGFTFSNAWMHWVRQAPGKGLEWVAQIKAKSNNYATYYAESVKGRFTISRDDSKNSLYLQMNSLKTEDTAVYYCRYVHYGAYYGVDAWGQGTTVTVSSASTKGPSVFPLAPSSKSTSGGTAALGCLVKDYFPEPVTVSWNSGALTSGVHTFPAVLQSSGLYSLSSVVTVPSSSLGTQTYICNVNHKPSNTKVDKKVEPKSCDKTHTCPPCPAPEAAGGPSVFLFPPKPKDTLMISRTPEVTCVVVDVSHEDPEVKFNWYVDGVEVHNAKTKPREEQYASTYRVVSVLTVLHQDWLNGKEYKCKVSNKALPAPIEKTISKAKGQPREPQVYTLPPSRCELTKNQVSLSCAVKGFYPSDIAVEWESNGQPENNYKTTPPVLDSDGSFFLVSKLTVDKSRWQQGNVFSCSVMHEALHNHYTQKSLSLSPDYKDDDDK EPKSSDKTHTCPPCPAPELLGGPSVFLFPPKPKDTLMISRTPEVTCVVVDVSHEDPEVKFNWYVDGVEVHNAKTKPREEQYNSTYRVVSVLTVLHQDWLNGKEYKCKVSNKALPAPIEKTISKAKGQPREPQVCTLPPSRDELTKNQVSLWCLVKGFYPSDIAVEWESNGQPENNYKTTPPVLDSDGSFFLYSKLTVDKSRWQQGNVFSCSVMHEALHNRYTQKSLSLSP light: DIVMTQSPLSLPVTPGEPASISCRSSQSLVHSNRNTYLHWYQQKPGQAPRLLIYKVSNRDSGVPDRFSGSGSGTDFTLKISRVEAEDVGVYYCGQGTQVPYTFGQGTKLEIKRTVAAPSVFIFPPSDEQLKSGTASVVCLLNNFYPREAKVQWKVDNALQSGNSQESVTEQDSKDSTYSLSSTLTLSKADYEKHKVYACEVTHQGLSSPVTKSFNRGEC", "values": [{"measurement": "ratio of amounts bound (altered form / unaltered GLS3000 antibody)", "setting": "[1]", "value": 0.65}]}, {"binder": "CE115HA000/GLS3000 Y96L one-arm antibody (antibody, human IgG1, kappa, L234A L235A, N297A, name in Kabat numbering, one-arm IgG1) heavy: QVQLVESGGGVVQPGRSLRLSCAASGFTFSNAWMHWVRQAPGKGLEWVAQIKAKSNNYATYYAESVKGRFTISRDDSKNSLYLQMNSLKTEDTAVYYCRYVHYGAYYGVDAWGQGTTVTVSSASTKGPSVFPLAPSSKSTSGGTAALGCLVKDYFPEPVTVSWNSGALTSGVHTFPAVLQSSGLYSLSSVVTVPSSSLGTQTYICNVNHKPSNTKVDKKVEPKSCDKTHTCPPCPAPEAAGGPSVFLFPPKPKDTLMISRTPEVTCVVVDVSHEDPEVKFNWYVDGVEVHNAKTKPREEQYASTYRVVSVLTVLHQDWLNGKEYKCKVSNKALPAPIEKTISKAKGQPREPQVYTLPPSRCELTKNQVSLSCAVKGFYPSDIAVEWESNGQPENNYKTTPPVLDSDGSFFLVSKLTVDKSRWQQGNVFSCSVMHEALHNHYTQKSLSLSPDYKDDDDK EPKSSDKTHTCPPCPAPELLGGPSVFLFPPKPKDTLMISRTPEVTCVVVDVSHEDPEVKFNWYVDGVEVHNAKTKPREEQYNSTYRVVSVLTVLHQDWLNGKEYKCKVSNKALPAPIEKTISKAKGQPREPQVCTLPPSRDELTKNQVSLWCLVKGFYPSDIAVEWESNGQPENNYKTTPPVLDSDGSFFLYSKLTVDKSRWQQGNVFSCSVMHEALHNRYTQKSLSLSP light: DIVMTQSPLSLPVTPGEPASISCRSSQSLVHSNRNTYLHWYQQKPGQAPRLLIYKVSNRFSGVPDRFSGSGSGTDFTLKISRVEAEDVGVYYCGQGTQVPLTFGQGTKLEIKRTVAAPSVFIFPPSDEQLKSGTASVVCLLNNFYPREAKVQWKVDNALQSGNSQESVTEQDSKDSTYSLSSTLTLSKADYEKHKVYACEVTHQGLSSPVTKSFNRGEC", "values": [{"measurement": "KD ratio to GLS3000", "setting": "[2]", "value": 1.84, "unit": "ratio"}]}, {"binder": "GLS3000 F55A one-arm antibody (H chain CE115HA000) (antibody, human IgG1, kappa, L234A L235A, N297A, name in Kabat numbering, one-arm antibody) heavy: QVQLVESGGGVVQPGRSLRLSCAASGFTFSNAWMHWVRQAPGKGLEWVAQIKAKSNNYATYYAESVKGRFTISRDDSKNSLYLQMNSLKTEDTAVYYCRYVHYGAYYGVDAWGQGTTVTVSSASTKGPSVFPLAPSSKSTSGGTAALGCLVKDYFPEPVTVSWNSGALTSGVHTFPAVLQSSGLYSLSSVVTVPSSSLGTQTYICNVNHKPSNTKVDKKVEPKSCDKTHTCPPCPAPEAAGGPSVFLFPPKPKDTLMISRTPEVTCVVVDVSHEDPEVKFNWYVDGVEVHNAKTKPREEQYASTYRVVSVLTVLHQDWLNGKEYKCKVSNKALPAPIEKTISKAKGQPREPQVYTLPPSRCELTKNQVSLSCAVKGFYPSDIAVEWESNGQPENNYKTTPPVLDSDGSFFLVSKLTVDKSRWQQGNVFSCSVMHEALHNHYTQKSLSLSPDYKDDDDK EPKSSDKTHTCPPCPAPELLGGPSVFLFPPKPKDTLMISRTPEVTCVVVDVSHEDPEVKFNWYVDGVEVHNAKTKPREEQYNSTYRVVSVLTVLHQDWLNGKEYKCKVSNKALPAPIEKTISKAKGQPREPQVCTLPPSRDELTKNQVSLWCLVKGFYPSDIAVEWESNGQPENNYKTTPPVLDSDGSFFLYSKLTVDKSRWQQGNVFSCSVMHEALHNRYTQKSLSLSP light: DIVMTQSPLSLPVTPGEPASISCRSSQSLVHSNRNTYLHWYQQKPGQAPRLLIYKVSNRASGVPDRFSGSGSGTDFTLKISRVEAEDVGVYYCGQGTQVPYTFGQGTKLEIKRTVAAPSVFIFPPSDEQLKSGTASVVCLLNNFYPREAKVQWKVDNALQSGNSQESVTEQDSKDSTYSLSSTLTLSKADYEKHKVYACEVTHQGLSSPVTKSFNRGEC", "values": [{"measurement": "ratio of amounts bound (altered form / unaltered GLS3000 antibody)", "setting": "[1]", "value": 1.13}]}]}
